We go through one molecule from publication PMC12533375, “Critical Role of IL1R2‐ENO1 Interaction in Inhibiting Glycolysis‐Mediated Pyroptosis for Protection Against Lethal Sepsis” (Advanced Science, 2025).

This test addresses T1, recombinant mouse ENO1 (rmENO1) (mouse, UniProt P17182 1-434).
T1 construct: recombinant mouse ENO1, Creative BioMart Cat. No. Eno1-244 M; The vendor's data sheet should be consulted; source: bought: Creative BioMart (Cat. No. Eno1-244 M)
Put plainly: SPR; OpenSPR (Nicoya); rmIL1R2 immobilised on a carboxyl sensor (EDC/NHS), rmENO1 as analyte at 12.5 to 50 nM; 40 µL/min, 20 °C; 50 mM Tris-HCl, 150 mM NaCl, 3 mM EDTA, 0.05% P20, 0.5 mM CaCl2, pH 7.4; global 1:1 fit. The settings on record: both partners purified. In general terms: SPR reads the build-up and loss of mass on a sensor chip optically.

T1 sequence (P17182 whole entry): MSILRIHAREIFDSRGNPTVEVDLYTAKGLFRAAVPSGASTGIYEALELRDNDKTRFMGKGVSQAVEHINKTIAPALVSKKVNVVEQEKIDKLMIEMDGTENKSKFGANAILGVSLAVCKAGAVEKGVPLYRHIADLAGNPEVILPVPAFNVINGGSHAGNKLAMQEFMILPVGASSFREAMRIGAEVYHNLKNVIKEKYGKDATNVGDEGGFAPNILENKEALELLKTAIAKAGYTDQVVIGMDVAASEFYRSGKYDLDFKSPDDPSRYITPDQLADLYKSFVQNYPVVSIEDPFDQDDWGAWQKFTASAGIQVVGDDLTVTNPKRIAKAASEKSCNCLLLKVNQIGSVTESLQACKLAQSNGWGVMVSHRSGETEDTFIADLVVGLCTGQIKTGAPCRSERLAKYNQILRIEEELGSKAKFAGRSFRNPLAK

B1: recombinant mouse IL1R2 (rmIL1R2) (receptor, UniProt P27931 14-355, looked up)
chain: FTTPTVVHTGKVSESPITSEKPTVHGDNCQFRGREFKSELRLEGEPVVLRCPLAPHSDISSSSHSFLTWSKLDSSQLIPRDEPRMWVKGNILWILPAVQQDSGTYICTFRNASHCEQMSVELKVFKNTEASLPHVSYLQISALSTTGLLVCPDLKEFISSNADGKIQWYKGAILLDKGNKEFLSAGDPTRLLISNTSMDDAGYYRCVMTFTYNGQEYNITRNIELRVKGTTTEPIPVIISPLETIPASLGSRLIVPCKVFLGTGTSSNTIVWWLANSTFISAAYPRGRVTEGLHHQYSENDENYVEVSLIFDPVTREDLHTDFKCVASNPRSSQSLHTTVKE
notes: recombinant mouse IL1R2, R&D Systems Cat. No. 563-MR-100; The vendor's data sheet should be consulted; source: bought: R&D Systems (Cat. No. 563-MR-100)
For the molecule B1, the Kd (in general, the equilibrium constant for the complex coming apart) came out at 1.99 nM.
